Experimental data: patent US20060073149A1

Legend:
Soluble Aβ 1-40 = Soluble Aβ 1-40 (UniProt P05067); assay: SPR (BIAcore 2000), antibody captured on anti-Ig, soluble Aβ in flow
Soluble Aβ 1-42 = Soluble Aβ 1-42 (UniProt P05067); assay: as above

Substance | Kd (Soluble Aβ 1-40) [nM] | Kd (Soluble Aβ 1-42) [nM]
Murine anti-Aβ antibody 266 | 0.004 | 0.004
anti-Aβ murine antibody 4G8 | 23 | 24
anti-Aβ murine antibody 21F12 |  | 4.4
